# Laboratory results as given in article PMC3688503 (2013).
# B1: wild-type MTM1-B10 fusion protein [human] / wild-type MTMR12-GFP protein [human] (parent complex)
# chain 1: MASASTSKYNSHSLENESIKRTSRDGVNRDLTEAVPRLPGETLITDKEVIYICPFNGPIKGRVYITNYRLYLRSLETDSSLILDVPLGVISRIEKMGGATSRGENSYGLDITCKDMRNLRFALKQEGHSRRDMFEILTRYAFPLAHSLPLFAFLNEEKFNVDGWTVYNPVEEYRRQGLPNHHWRITFINKCYELCDTYPALLVVPYRASDDDLRRVATFRSRNRIPVLSWIHPENKTVIVRCSQPLVGMSGKRNKDDEKYLDVIRETNKQISKLTIYDARPSVNAVANKATGGGYESDDAYHNAELFFLDIHNIHVMRESLKKVKDIVYPNVEESHWLSSLESTHWLEHIKLVLTGAIQVADKVSSGKSSVLVHCSDGWDRTAQLTSLAMLMLDSFYRSIEGFEILVQKEWISFGHKFASRIGHGDKNHTDADRSPIFLQFIDCVWQMSKQFPTAFEFNEQFLIIILDHLYSCRFGTFLFNCESARERQKVTERTVSLWSLINSNKEKFKNPFYTKEINRVLYPVASMRHLELWVNYYIRWNPRIKQQQPNPVEQRYMELLALRDEYIKRLEELQLANSAKLSDPPTSPSSPSQMMPHVQTHF
# chain 2: MLGKGVVGGGGGTKAPKPSFVSYVRPEEIHTNEKEVTEKEVTLHLLPGEQLLCEASTVLKYVQEDSCQHGVYGRLVCTDFKIAFLGDDESALDNDETQFKNKVIGENDITLHCVDQIYGVFDEKKKTLFGQLKKYPEKLIIHCKDLRVFQFCLRYTKEEEVKRIVSGIIHHTQAPKLLKRLFLFSYATAAQNNTVTDPKNHTVMFDTLKDWCWELERTKGNMKYKAVSVNEGYKVCERLPAYFVVPTPLPEENVQRFQGHGIPIWCWSCHNGSALLKMSALPKEQDDGILQIQKSFLDGIYKTIHRPPYEIVKTEDLSSNFLSLQEIQTAYSKFKQLFLIDNSTEFWDTDIKWFSLLESSSWLDIIRRCLKKAIEITECMEAQNMNVLLLEENASDLCCLISSLVQLMMDPHCRTRIGFQSLIQKEWVMGGHCFLDRCNHLRQNDKEEVPVFLLFLDCVWQLVHQHPPAFEFTETYLTVLSDSLYIPIFSTFFFNSPHQKDTNMGREGQDTQSKPLNLLTVWDWSVQFEPKAQTLLKNPLYVEKPKLDKGQRKGMRFKHQRQLSLPLTQSKSSPKRGFFREETDHLIKNLLGKRISKLINSSDELQDNFREFYDSWHSKSTDYHGLLLPHIEGPEIKVWAQRYLRWIPEAQILGGGQVATLSKLLEMMEEVQSLQEKIDERHHSQQAPQAEAPCLLRNSARLSSLFPFALLQRHSSKPVLPTSGWKALGDEDDLAKREDEFVDLGDV
# Variants of: B1
# Assay: co-immunoprecipitation (anti-B10 IP, western blot quantification); overexpressed in Cos1 cells; IP with anti-B10 tag antibody; parent: 1; read off a plot
row,response [AU],Variant
1,~1,chain 1 R241C
2,~0.92,chain 1 R421Q
3,~0.05,chain 1 V49F
4,~0.92,chain 1 C375S
5,~0.05,chain 1 R184G
6,~0.05,chain 1 R69C
7,~0.07,chain 1 P205L
